Reference: patent WO2018019380A1 (dated 2018)

T1: CEACAM1 (as used for the Kd / Kon / Koff values) (human, UniProt P13688 35-428, limits assumed)
T1 sequence (looked up): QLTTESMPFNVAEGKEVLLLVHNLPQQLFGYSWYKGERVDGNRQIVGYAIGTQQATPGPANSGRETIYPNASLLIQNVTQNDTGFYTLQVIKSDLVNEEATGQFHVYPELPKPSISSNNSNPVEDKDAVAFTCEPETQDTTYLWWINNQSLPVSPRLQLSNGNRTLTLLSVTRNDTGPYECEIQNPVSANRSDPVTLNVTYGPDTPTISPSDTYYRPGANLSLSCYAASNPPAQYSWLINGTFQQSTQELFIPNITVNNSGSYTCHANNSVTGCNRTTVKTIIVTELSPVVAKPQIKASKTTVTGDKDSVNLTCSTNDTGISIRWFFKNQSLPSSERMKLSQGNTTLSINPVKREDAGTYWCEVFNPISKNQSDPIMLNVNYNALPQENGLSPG


Biological target: T1, CEACAM1 (as used for the Kd / Kon / …)
Test: method not stated

| Kd | Binder |
| --- | --- |
| 23 nM | Anti-human CEACAM1 antibody (Clone 6G5J) (antibody, V domains shown, Mouse monoclonal antibody from hybridoma 6G5J; also called Antikörper 6G5J; antibody 6G5J) VH: KPGETVKISCKTSGYIFRNYGMKWVKQAPGKGLKWMGWINTYTGEPTYADDFKGRFAFSLETSASTAYLQINNLKNEDMATYFCARRGMITTSNYALDNWGQGTSVTVSS VL: SSLSASLGDRVTISCRASQDISNYLNWYQQKPDGTIKLLIYYTSKLHSGVPSRFSGSGSGTDYSLTISNLDQEDIATYFCQQGNTLPWTFGGGTKLEIK |
| 26 nM | Anti-human CEACAM1 antibody (Clone 18-20) (antibody, V domains shown, Mouse monoclonal antibody from hybridoma 18-20; also called Antikörper 18-20; antibody 18-20) VH: KPGETVKISCKASGYTFTVYGMNWVKQAPGKDLKWMGWINTYTGEPTYADDFKGRFAFSLETSASTAYLQINNLKNEDMATYFCARKAFYRYDGGMDYWGQGTSVTVSS VL: SSLSASLGGKVTITCKASQDINKFLAWYQHKPGKGPRLLIHYTSTLQPGIPSRFSGSGSGRDYSFSISNLEPEDIATYYCLQYDNLYTFGGGTKLEIK |
| 10 nM | Anti-human CEACAM1 antibody (Clone B3-17) (antibody, V domains shown, Mouse monoclonal antibody from hybridoma B3-17; also called Antikörper B3-17; antibody B3-17) VH: GPELVKPGTSVKMSCKASGYTFTTYVMHWVQQKPGQGLDWIGFFNPYNDGTKYNEKFKGKATLTSDKSSSTAYMELSSLTSEDSAVYYCARWAYDGSYAYWGQGTTLTVSS VL: SYLSVFLGGRVTITCKASDHINNWLAWYQQKPGNAPRLLISGATSLETGVPSRFSGSGSGKDYTLSIISLQTEDVATYYCQQYWRTPFTFGSGTKLEIK |
